Here are results for 17 molecules from publication PMC10201434, “The DNA replication initiation protein DnaD recognises a specific strand of the Bacillus subtilis chromosome origin” (Nucleic Acids Research, 2021).

Changes are numbered by the printed parent chain.

Broadly, the stoichiometry N is the number of molecules, sites or subunits per partner or assembly.

T1: DnaD L22A (Bacillus subtilis 168CA, UniProt P39787 1-232, L22A)
T1 sequence: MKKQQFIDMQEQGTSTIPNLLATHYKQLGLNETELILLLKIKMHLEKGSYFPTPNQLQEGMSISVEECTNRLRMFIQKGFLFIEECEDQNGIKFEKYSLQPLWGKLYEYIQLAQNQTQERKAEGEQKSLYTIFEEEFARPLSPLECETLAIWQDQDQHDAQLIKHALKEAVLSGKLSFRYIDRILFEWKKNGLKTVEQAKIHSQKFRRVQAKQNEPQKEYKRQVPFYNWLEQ

T2: DnaD1-224 (Bacillus subtilis 168CA, UniProt P39787 1-224)
T2 sequence: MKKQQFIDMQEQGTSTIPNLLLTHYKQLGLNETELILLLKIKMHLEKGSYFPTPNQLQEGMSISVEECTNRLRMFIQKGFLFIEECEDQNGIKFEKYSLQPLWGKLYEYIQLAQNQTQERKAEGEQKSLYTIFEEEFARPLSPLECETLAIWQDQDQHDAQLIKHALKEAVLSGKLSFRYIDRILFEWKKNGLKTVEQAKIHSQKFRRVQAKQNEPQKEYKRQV

T3: DnaD (Bacillus subtilis 168CA, UniProt P39787 1-232)
T3 sequence: T1 sequence with A22L

T4: DnaD F6A (Bacillus subtilis 168CA, UniProt P39787 1-232, F6A)
T4 sequence: T1 sequence with F6A, A22L

T5: DnaD1-205 (Bacillus subtilis 168CA, UniProt P39787 1-205)
T5 sequence: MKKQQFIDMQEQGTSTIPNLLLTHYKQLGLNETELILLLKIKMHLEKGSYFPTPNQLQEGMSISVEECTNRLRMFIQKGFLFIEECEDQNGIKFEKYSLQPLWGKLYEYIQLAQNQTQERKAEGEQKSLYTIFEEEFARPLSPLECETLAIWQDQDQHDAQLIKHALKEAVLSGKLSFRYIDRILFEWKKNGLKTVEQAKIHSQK

B1: DnaD^1-224 (truncation lacking the DnaB interaction region, the last eight residues) (domain or fragment, Bacillus subtilis, UniProt P39787 1-224, looked up)
chain: T2 sequence
notes: DnaD, Bacillus subtilis 168CA, residues 1-224; variant lacking the last eight amino acid residues of the DnaD^CTT; made from pSF17; source: E. coli BL21(DE3)-pLysS, purified (HisTrap, His14-SUMO tag digested, second HisTrap flow-through)
B2: DnaD^1-205 (truncation lacking the entire C-terminal tail) (domain or fragment, Bacillus subtilis, UniProt P39787 1-205, looked up)
chain: T5 sequence
notes: DnaD, Bacillus subtilis 168CA, residues 1-205; variant lacking the entire DnaD^CTT; made from pSF17; source: E. coli BL21(DE3)-pLysS, purified (HisTrap, His14-SUMO tag digested, second HisTrap flow-through)

The first series concerns the molecule itself. Description: SEC; Superdex 200 Increase 10/300GL, 4°C; 40 mM Tris-HCl pH 8, 500 mM NaCl, 1 mM EDTA, 20 mM imidazole; 500 μl samples.
Details: not given
As for B1, the “stoichiometry N” value was 4.

A further series concerns the molecule itself. Description: SEC-MALS; 20°C; 40 mM Tris-HCl pH 8, 500 mM NaCl, 1 mM EDTA, 20 mM imidazole, 2.5% v/v glycerol; 100 μl injected.
Details: not given
(Size exclusion chromatography separates by hydrodynamic size, large species first.)
For B2, the “stoichiometry N” value worked out at 4.

In a further series the target is T1, DnaD L22A. The experiment in a line: fluorescence polarisation; FP: 10 mM HEPES-KOH pH 7.5, 1 mM Mg acetate, 100 mM K glutamate, 20 C, 1.875 nM DNA, DnaD up to 500 nM, 10 min; Bpa crosslinking conditions not in material. The conditions noted are these: protein: recombinant; tags: His14-SUMO tag removed; label: fluorescein 5'. (Polarisation of emitted light reports the rotation of a fluorescent probe.)
For the molecule CTCCTCCCCCCCCTCCTC (ssDNA) [polyC with two TnnT (oCW1128)], the binding result is “no binding”.

Another series addresses T2, DnaD1-224. The series is described as above. The conditions noted are these: protein: recombinant; tags: His14-SUMO tag removed; chain copies: 4; label: fluorescein 5'.
As for TTTTTTTTTTTTTTTTTTTTTTTTTTTTTTTTTTTTTTTT (ssDNA) [polyT(40) (oCW837)], the binding result was “binds”.

A further series has as its target T3, DnaD. Described as above. The conditions noted are these: protein: recombinant; tags: His14-SUMO tag removed; chain copies: 4; label: fluorescein 5'.
Take CTCCTCCCCCCTCCTCCC (ssDNA) [TnnT spacing (oCW1492)]: the binding result is given as “binds”.

For the molecule TTTTTTTTTTTTTTTTTTTTTTTTTTTTTTTTTTTTTTTT (ssDNA) [polyT(40) (oCW837)], the binding result is “binds”.

For the molecule CTCCTCCCCCCCTCCTCC (ssDNA) [TnnT spacing (oCW1491)], the binding result was “binds”.

Regarding CTCCTCTCCTCCCCCCCC (ssDNA) [TnnT spacing (oCW1497)], the binding result was “binds”.

TTTTTTTTTTTTTTT (ssDNA) [polyT(15) (oCW1029)]: the binding result is reported as “binds”.

In the case of CTCCTCCCCCTCCTCCCC (ssDNA) [TnnT spacing (oCW1493)], the binding result is reported as “binds”.

As to CTCCTCCCCTCCTCCCCC (ssDNA) [TnnT spacing (oCW1494)], the binding result is on record as “binds”.

Turning to GTATTACCGCCTTTGAGTGA (ssDNA) [ssDNA 2 (oCW1124)], the binding result is on record as “binds”.

As for CTCCTCCTCCTCCCCCCC (ssDNA) [TnnT spacing (oCW1496)], the binding result is “binds”.

Turning to TCACTCAAAGGCGGTAATAC (ssDNA) [ssDNA 1 (oCW1036)], the binding result is “binds”.

Take CTCCTTCCTCCCCCCCCC (ssDNA) [TnnT juxtaposed (oCW1498)]: the binding result was “binds”.

As to TTTTTTTTTT (ssDNA) [polyT(10) (oCW834)], the binding result is “no binding”.

For the molecule CTACTATTACTTCTACTA (ssDNA) [DRE (oCW1039)], the binding result is reported as “binds”.

As to CTCCTCCCCCCCCTCCTC (ssDNA) [polyC with two TnnT (oCW1128)], the binding result is reported as “binds”.

Consider CTCCTCCCTCCTCCCCCC (ssDNA) [TnnT spacing (oCW1495)], for which the binding result is on record as “binds”.

The target of a further series is T4, DnaD F6A. Described as above. The conditions noted are these: protein: recombinant; tags: His14-SUMO tag removed; chain copies: 2; label: fluorescein 5'.
For CTCCTCCCCCCCCTCCTC (ssDNA) [polyC with two TnnT (oCW1128)], the binding result is recorded as “no binding”.

For a further series, the target named is T5, DnaD1-205. The series is described as above. The conditions noted are these: protein: recombinant; tags: His14-SUMO tag removed; chain copies: 4; label: fluorescein 5'.
Consider TTTTTTTTTTTTTTTTTTTTTTTTTTTTTTTTTTTTTTTT (ssDNA) [polyT(40) (oCW837)], for which the binding result is reported as “no binding”.
